Measurements from IntAct's records for PubMed 30262834.

B1: Leucine-rich repeat transmembrane neuronal protein 2 (Homo sapiens), O43300 (parent)
chain: MGLHFKWPLGAPMLAAIYAMSMVLKMLPALGMACPPKCRCEKLLFYCDSQGFHSVPNATDKGSLGLSLRHNHITELERDQFASFSQLTWLHLDHNQISTVKEDAFQGLYKLKELILSSNKIFYLPNTTFTQLINLQNLDLSFNQLSSLHPELFYGLRKLQTLHLRSNSLRTIPVRLFWDCRSLEFLDLSTNRLRSLARNGFAGLIKLRELHLEHNQLTKINFAHFLRLSSLHTLFLQWNKISNLTCGMEWTWGTLEKLDLTGNEIKAIDLTVFETMPNLKILLMDNNKLNSLDSKILNSLRSLTTVGLSGNLWECSARICALASWLGSFQGRWEHSILCHSPDHTQGEDILDAVHGFQLCWNLSTTVTVMATTYRDPTTEYTKRISSSSYHVGDKEIPTTAGIAVTTEEHFPEPDNAIFTQRVITGTMALLFSFFFIIFIVFISRKCCPPTLRRIRQCSMVQNHRQLRSQTRLHMSNMSDQGPYNEYEPTHEGPFIIINGYGQCKCQQLPYKECEV

Variants of: B1
Conditions: with NRXN1, P58400-1
NRXN1, P58400-1, sequence (P58400 other isoform, or with tags, fused parts or gaps): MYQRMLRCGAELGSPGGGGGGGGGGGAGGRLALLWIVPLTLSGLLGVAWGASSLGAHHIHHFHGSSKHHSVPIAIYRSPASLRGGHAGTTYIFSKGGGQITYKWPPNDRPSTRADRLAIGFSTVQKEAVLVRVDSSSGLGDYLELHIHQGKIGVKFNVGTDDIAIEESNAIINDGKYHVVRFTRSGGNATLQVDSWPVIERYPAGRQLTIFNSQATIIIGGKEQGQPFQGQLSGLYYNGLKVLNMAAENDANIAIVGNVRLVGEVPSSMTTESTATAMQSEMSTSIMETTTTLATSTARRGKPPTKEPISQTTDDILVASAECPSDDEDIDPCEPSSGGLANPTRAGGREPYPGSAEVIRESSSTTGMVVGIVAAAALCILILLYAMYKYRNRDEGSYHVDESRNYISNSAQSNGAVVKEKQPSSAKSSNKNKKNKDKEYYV

Row | Variant | effect of a mutation on the interaction
1 | R208A | disrupting interaction strength
2 | E348Q | disrupting interaction strength
3 | D352A | decreasing interaction strength
4 | H355A | with no effect
5 | F357A | decreasing interaction strength
